Measurements: patent publication US20110097326A1 (IRM, published 2011)
Residue numbers refer to the chain shown, from its start. Several values for one entry are separate records, joined by “and”; a condition that tells them apart may be missing. Equal entries are not always repeated.

How the values were obtained:
[1] = biological target: TrkB on rat intestinal epithelial (RIE)-TrkB cells; assay: cell-based or functional assay
[2] = biological target: T1, recombinant Fc-TrkB antigen (human) (human, UniProt Q16620 32-430, limits assumed); assay: BLI (ForteBio Octet), biotinylated Fc-TrkB on streptavidin sensors, IgG at 1E-8 M
T1 construct: Biotinylated for the ForteBio assays; also called Fc-hTrkB; human Fc-TrkB; not shown: Fc part
Description: (§1) The binding kinetics of IgGs and Fab fragments were analyzed using a ForteBio Octet biosensor. Recombinant Fc-TrkB antigen was biotinylated using the EZ-link biotinylation kit (Pierce) according to the manufacturer's methods. The antigen was then coupled to streptavidin-coated sensors (ForteBio). Fab binding was monitored in real time using bio-layer interferometry analysis and software provided by the manufacturer. Affinities were calculated from the determined association and dissociation constants.
IgGs with human V-segments were also prepared from transient transfections of CHO cells. IgG preparations were purified and further characterized by kinetic comparison with the reference IgG A10F18.2. Binding kinetics for two of the IgGs with human V-segments were analyzed using a ForteBio Octet system for real-time label-free monitoring of protein-protein interactions.

TrkA-Fc fusion protein [3] = biological target: T2, TrkA-Fc fusion protein (human, UniProt P04629-2 34-407, limits assumed); assay: ELISA on Trk-hFc fusion proteins, goat anti-human Fab-HRP detection [panel C]
T2 construct: not shown: Fc part
Description: (§2) FIG. 9A-D illustrate ELISA assays showing specific binding of NVP-LFD253, NVP-LFD254, NVP-LFC325 and NVP-LFC327 to human TrkB-Fc fusion protein but not to human […] or TrkC-Fc fusion proteins. Purified IgG at 2 μg/ml was evaluated for specificity by examining its interaction with three different Trk family members (TrkA, TrkB and TrkC). Secondary Ab are replicates that were blocked and treated with only the goat-anti-human Fab-HRP detection Ab.
(§3) IgG with human V-segments (e.g., NVP-LFD253, NVP-LFD254, NVP-LFC325, and NVP-LFC327) bind specifically to TrkB but not to TrkA or TrkC. Purified IgG antibodies at 2 μg/ml were evaluated for specificity by examining its interaction with three different Trk family members (TrkA, TrkB and TrkC). Secondary Ab are replicates that were blocked and treated with only the goat-anti-human Fab-HRP detection Ab. As shown in FIG. 9A-D, none of LFD253, LFD254, LFC325 or LFC327 bind to either of these related Trk family receptors.

[4] = biological target: T3, human TrkC-Fc fusion protein (human, UniProt Q16288 32-429, limits assumed); assay: as above
T3 construct: not shown: Fc part
Description: as §2, §3

[5] = biological target: T1, recombinant Fc-TrkB antigen (human); assay: SPR (Biacore S51), Fc-hTrkB amine-coupled to CM-5 chip, IgG in flow, global 1:1 Langmuir fit
Description: Binding studies on the improved antibodies were performed by immobilizing Fc-hTrkB onto a Series S CM-5 Biacore sensor chip (certified) (Biacore #BR-1005-30). Covalent binding of the Fc-fusion protein was done with the ‘Amine Coupling Kit’ (Biacore #BR-1000-50). The Fc-Fusion protein was attached to the EDC-activated dextran surface at 5 μg/ml in 10 mM sodium acetate, pH 4.5 (Biacore #BR-1003-50) at a flow rate of 10 μL/min
A range of concentrations of improved antibodies were flowed over the Fc-TrkB captured chip in PBS plus 100 mM NaCl, 0.005% P20 (Biacore #BR-1000-54). The resulting sensorgrams were analyzed using the Biacore S51 Evaluation Software. Data from all concentrations was fitted globally to a 1:1 Langmuir model.
Although this antibody is bivalent, the binding was treated as a 1:1 event.

[6] = biological target: T1, recombinant Fc-TrkB antigen (human); assay: BLI (ForteBio Octet), biotinylated Fc-TrkB on streptavidin sensors, Fab at 1E-7 M
Description: as §1
(§4) Fabs with human V-segments were isolated from colony-lift binding assays and confirmed by antigen-binding ELISA. The Fab clones showing strong positive signals in antigen-binding ELISA were purified and further characterized by kinetic comparison with the reference Fab TR3-1. Binding kinetics were analyzed using a ForteBio Octet system for real-time label-free monitoring of protein-protein interactions.

[7] = biological target: T1, recombinant Fc-TrkB antigen (human); assay: as above; remark: listed apart in the source
Description: as §1, §4

TrkA-Fc fusion protein [8] = biological target: T2, TrkA-Fc fusion protein; assay: ELISA on Trk-hFc fusion proteins, goat anti-human Fab-HRP detection [panel B]
Description: as §2, §3

[9] = biological target: T3, human TrkC-Fc fusion protein; assay: as above
Description: as §2, §3

TrkA-Fc fusion protein [10] = biological target: T2, TrkA-Fc fusion protein; assay: ELISA on Trk-hFc fusion proteins, goat anti-human Fab-HRP detection [panel D]
Description: as §2, §3

[11] = biological target: T3, human TrkC-Fc fusion protein; assay: as above
Description: as §2, §3

TrkA-Fc fusion protein [12] = biological target: T2, TrkA-Fc fusion protein; assay: ELISA on Trk-hFc fusion proteins, goat anti-human Fab-HRP detection [panel A]
Description: as §2, §3

[13] = biological target: T3, human TrkC-Fc fusion protein; assay: as above
Description: as §2, §3

[14] = biological target: T1, recombinant Fc-TrkB antigen (human); assay: blocking ELISA on coated Fc-TrkB; blocked molecule: Fab TR151-1 at 50 nM, detected with anti-human kappa-HRP [upper panel]
[15] = biological target: T1, recombinant Fc-TrkB antigen (human); assay: blocking ELISA on coated Fc-TrkB; blocked molecule: Fab TR3-1 at 50 nM (two replicate series), detected with anti-human kappa-HRP [upper panel]

B1: NVP-LFC325 (antibody, human IgG1, V domains shown)
VH: QVQLVQSGAEVKKPGASVKVSCKASGYTFTAYDMHWVRQAPGQGLEWMGWIDPNSGGTRYAQKFQGRVTMTRDTSISTAYMELSRLTSDDTAVYYCTGVTTWFAYWGQGTLVTVSS
VL: DIVMTQTPLSLPVTLGQPASISCRSSQSLLHSNGNTYLNWYQQTPGQPPRLLIYKISNRFSGVPDRFSGSGAGTDFTLKISRVEAEDVGVYYCMQGTHVPYTFGQGKLEIK
notes: IgG with human IgG1 constant region and human kappa constant region, from transiently transfected CHO cells; also called TR127 Vh & TR119 Vk
[1]
  EC50, anoikis assay on RIE-TrkB cells: 41.8 ng/ml and 280 pM
[2]
  Kd: 0.0335 nM
  koff: 1.52e-05 s⁻¹
  kon: 453000 M⁻¹ s⁻¹
TrkA-Fc fusion protein [3]
  binding result: no binding (tested: 2 ug/ml)
[4]
  binding result: no binding (tested: 2 ug/ml)
[5]
  Kd: 0.114 nM
  koff: 4.85e-05 s⁻¹
  kon: ~425000 M⁻¹ s⁻¹

B2: Fab TR135-8 (Fab, V domains shown)
VH: B1 VH
VL: MDVVMTQSPLSLPVTLGQPASISCRSSQSLVHSNGNTYLNWYQQKPGQPPRLLIYKISNRFSGVPDRFSGSGAGTDFTLKISRVEAEDVGVYYCMQGTHEPYTFGQGKLEIK
notes: Fab with human V-segments, expressed in E. coli; detected with anti-human kappa
[6]
  Kd: 32.3 nM
  koff: 0.00439 s⁻¹
  kon: 136000 M⁻¹ s⁻¹
[7]
  Kd: 31.9 nM
  koff: 0.00458 s⁻¹
  kon: 144000 M⁻¹ s⁻¹

B3: NVP-LFD254 (antibody, human IgG1, V domains shown)
VH: B1 VH with N54R, G57D, R59S, A61K, S84H, T87R
VL: B1 VL
notes: IgG with human IgG1 constant region and human kappa constant region, from transiently transfected CHO cells; also called TR143 Vh & TR119 Vk
[1]
  EC50, anoikis assay on RIE-TrkB cells: 24 ng/ml and 160 pM
TrkA-Fc fusion protein [8]
  binding result: no binding (tested: 2 ug/ml)
[9]
  binding result: no binding (tested: 2 ug/ml)
[5]
  Kd: 0.117 nM
  koff: 1.94e-05 s⁻¹
  kon: 166000 M⁻¹ s⁻¹

B4: Fab TR134-4 (Fab, V domains shown)
VH: B1 VH
VL: B2 VL with V31L, K45T
notes: Fab with human V-segments, expressed in E. coli
[7]
  Kd: 35.6 nM
  koff: 0.00422 s⁻¹
  kon: 118000 M⁻¹ s⁻¹

B5: NVP-LFC327 (antibody, human IgG1, V domains shown)
VH: B1 VH
VL: B1 VL with T7S, L30V, T44K, V99E
notes: IgG with human IgG1 constant region and human kappa constant region, from transiently transfected CHO cells; also called TR127 Vh & TR129 Vk
[1]
  EC50, anoikis assay on RIE-TrkB cells: 26.9 ng/ml and 180 pM
[2]
  Kd: 0.0197 nM
  koff: 7.9e-06 s⁻¹
  kon: 401000 M⁻¹ s⁻¹
TrkA-Fc fusion protein [10]
  binding result: no binding (tested: 2 ug/ml)
[11]
  binding result: no binding (tested: 2 ug/ml)
[5]
  Kd: 0.146 nM
  koff: 5.76e-05 s⁻¹
  kon: 393000 M⁻¹ s⁻¹

B6: Fab TR139-2 (Fab, V domains shown)
VH: B1 VH
VL: B2 VL with N40S, Y42L, K45R
notes: as for B4
[6]
  Kd: 15.1 nM
  koff: 0.00317 s⁻¹
  kon: 211000 M⁻¹ s⁻¹
[7]
  Kd: 14.2 nM
  koff: 0.00334 s⁻¹
  kon: 235000 M⁻¹ s⁻¹

B7: NVP-LFD253 (antibody, human IgG1, V domains shown)
VH: B1 VH
VL: B1 VL with L30V, N39S, Y41L, T44R, V99E
notes: IgG with human IgG1 constant region and human kappa constant region, from transiently transfected CHO cells; also called TR127 Vh & TR137 Vk
[1]
  EC50, anoikis assay on RIE-TrkB cells: 4.1 ng/ml and 28 pM
TrkA-Fc fusion protein [12]
  binding result: no binding (tested: 2 ug/ml)
[13]
  binding result: no binding (tested: 2 ug/ml)
[5]
  Kd: 0.165 nM
  koff: 3.25e-05 s⁻¹
  kon: 197000 M⁻¹ s⁻¹

B8: Fab TR144-1 (Fab, V domains shown)
VH: B1 VH with N54R, G57D, R59S, A61K, S84H, T87R
VL: B2 VL
notes: as for B4
[6]
  Kd: 31.1 nM
  koff: 0.00392 s⁻¹
  kon: 126000 M⁻¹ s⁻¹
[7]
  Kd: 29.7 nM
  koff: 0.00366 s⁻¹
  kon: 123000 M⁻¹ s⁻¹

B9: Fab TR151-1 (Fab, V domains shown)
VH: B1 VH with T97A, T101S
VL: B2 VL with N40S, Y42L, K45R
notes: as for B4
[6]
  Kd: 18.6 nM
  koff: 0.00395 s⁻¹
  kon: 213000 M⁻¹ s⁻¹

B10: A10F18.2 IgG (antibody, V domains shown)
VH: QVQLQQSGAELVRPGASVTLSCKASGYTFTDYEMHWVKQTPVHGLEWIGTIDPETAGTAYNQKFKGKAILTAGKSSSTAYMELRSLTSEDSAVYYCTGVTTWFAYWGQGTLVTVSA
VL: DVVMTQTPLSLPVSLGDQASISCRSSQSLVHSNGNTYLHWYLQKPGQSPNLLIYKVSNRFSGVPDRFSGSGSGTDFTLKISRVEAEDLGVYFCSQGTHVPYTFGGGTKLEIKR
[2]
  Kd: 0.0379 nM and 0.0477 nM
  koff: 1.44e-05 s⁻¹ and 1.89e-05 s⁻¹
  kon: 379000 M⁻¹ s⁻¹ and 396000 M⁻¹ s⁻¹
[14]
  IC50 (read off the curve): ~5 nM
[15]
  IC50 (read off the curve): ~6 nM
